For this assay, the target named is SARS-CoV-2 RBD (residues Arg319–Phe541) (SARS-CoV-2) (UniProt P0DTC2).

B1: P5A-2G7 (Fab) (Fab, V domains shown)
VH: QVQLQESGPGLVKPSETLSLTCTVSGDSVSSGSYYWSWIRQPPGKGLEWIGYIYYSGSTNYNPSLKSRVTISVDTSKNQFSLKLSSVTAADTAVYYCARERCYYGSGRAPRCVWFDPWGQGTLVTVSS
VL: QSALTQPASVSGSPGQSITISCTGTSSDVGGYNYVSWYQQHPGKAPKLMIYDVSNRPSGVSNRFSGSKSGNTASLTISGLQAEDEADYYCSSYTSSSTLVVFGGGTKLTVL
For the molecule B1, the SARS-CoV-2 pseudovirus neutralisation (luciferase, Huh7), IC50, Fab was 195 nM; the SARS-CoV-2 pseudovirus neutralisation (luciferase, Huh7), IC80, Fab turned out to be 1020 nM; the other was 15.5%.

B2: P5A-1B8 (Fab) (Fab, V domains shown)
VH: EVQLVESGGGLIQPGGSLRLSCAASGFTVSSNYMSWVRQAPGKGLEWVSVIYPGGSTFYADSVKGRFTISRDNSKNTLYLQMNSLRAEDTAVYYCARETLAFDYWGQGTLVTVSS
VL: DIQLTQSPSFLSASVGDRVTITCRASQGISSYLAWYQQKPGKAPKLLIYAASTLQSGVPSRFSGSGSGTEFTLTISSLQPEDFATYYCQQLNSYPPAFGGGTKVEIK
Turning to B2, the SARS-CoV-2 pseudovirus neutralisation (luciferase, Huh7), IC50, Fab came to 36.2 nM; the SARS-CoV-2 pseudovirus neutralisation (luciferase, Huh7), IC80, Fab was 174 nM; the other was 25.1%.

These data come from PMC7966918.
